In publication PMC3068233:

What was measured:
HMGB1 domain A C22S/C44S = molecular target: T1, HMGB1 domain A C22S/C44S (UniProt P09429 9-79, C23S;C45S); assay: EMSA
T1 sequence: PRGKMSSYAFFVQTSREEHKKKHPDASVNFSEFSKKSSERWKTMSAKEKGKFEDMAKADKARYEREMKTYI

HMGB1 domain A C22A = molecular target: T2, HMGB1 domain A C22A (UniProt P09429 9-79, C23A); assay: EMSA
T2 sequence: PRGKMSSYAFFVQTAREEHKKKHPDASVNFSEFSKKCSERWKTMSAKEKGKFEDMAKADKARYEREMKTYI

HMGB1 domain A C44A = molecular target: T3, HMGB1 domain A C44A (UniProt P09429 9-79, C45A); assay: EMSA
T3 sequence: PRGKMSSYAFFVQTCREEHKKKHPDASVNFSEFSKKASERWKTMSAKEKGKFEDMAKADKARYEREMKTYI

HMGB1 domain A C44S = molecular target: T4, HMGB1 domain A C44S (UniProt P09429 9-79, C45S); assay: EMSA
T4 sequence: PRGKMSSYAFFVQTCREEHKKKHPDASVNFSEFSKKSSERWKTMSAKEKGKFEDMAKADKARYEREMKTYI

HMGB1 domain A C22A/C44A = molecular target: T5, HMGB1 domain A C22A/C44A (UniProt P09429 9-79, C23A;C45A); assay: hydroxyl radical footprinting
T5 sequence: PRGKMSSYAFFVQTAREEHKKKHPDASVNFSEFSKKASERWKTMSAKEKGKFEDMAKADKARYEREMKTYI

HMGB1 domain A wild type = molecular target: T6, HMGB1 domain A wild type (UniProt P09429 9-79); assay: EMSA
T6 sequence: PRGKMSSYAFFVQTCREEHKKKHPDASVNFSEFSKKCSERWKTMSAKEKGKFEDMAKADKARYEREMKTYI

B1: 25-bp cisplatin-modified TGGA probe (dsDNA)
DNA 1: CCTCTCCTCTCTGGATCTTCTCTCC
DNA 2: GGAGAGAAGATCCAGAGAGGAGAGG
modifications: cisplatin 1,2-d(GpG) intrastrand cross-link at N7 of G13 and G14 of strand 1
**Q.** How did the Kd (HMGB1 domain A C22S/C44S) turn out when B1 was run?
**A.** 1.65 ± 0.37 nM

**Q.** And the Kd (HMGB1 domain A C22A)?
**A.** 1.12 ± 0.14 nM

**Q.** And the Kd (HMGB1 domain A C44A)?
**A.** 2.41 ± 0.31 nM

**Q.** What about the Kd (HMGB1 domain A C44S) of the same binder?
**A.** 1.6 ± 0.07 nM

**Q.** Does B1 bind (HMGB1 domain A C22A/C44A)?
**A.** binds

**Q.** What about the Kd (HMGB1 domain A wild type) of the same binder?
**A.** 0.7 ± 0.1 nM
